B1: Twister Ribozyme (parent)
chain: AACACUGCCAAUGCCGGUCCCAAGCCCGGAUAAAAGUGGAGGGGGCGG

Variants of: B1
Assay: self-cleavage, relative activity (ratio to wild type); higher = more cleavage; co-transcriptional

In order of falling self-cleavage:
1. G13A G44A  1.04
2. G13A U31G  1.01
3. G13A U31C  0.962
4. G13A C46U  0.931
5. G13A G48C  0.91
6. G13A G44U  0.845
7. G13A G38C  0.78
8. G13A G44C  0.746
9. G13A G45A  0.724
10. G13C A22C  0.71
11. G13A G48U  0.705
12. G13A G29C  0.692
13. G13C A33G  0.676
14. G13A G29A  0.653
15. G13A G29U  0.598
16. G13C C14A  0.593
17. G13C  0.584
18. G13A G38A  0.581
19. G13A G45U  0.539
20. G13C A30G  0.502
21. G13A C27U  0.482
22. G13C G29C  0.477
23. G13C G29U  0.46
24. G13A G47A  0.457
25. G13C G29A  0.411
26. G13A G42C  0.34
27. G13C A33U  0.335
28. G13C G38C  0.32
29. G13C G28C  0.31
30. G13C G28A  0.307
31. G13A C19U  0.284
32. G13A G47C  0.272
33. G13C G28U  0.255
34. G13C G44U  0.254
35. G13C A34G  0.253
36. G13C G45A  0.209
37. G13A G42U  0.191
38. G13C G44C  0.185
39. G13A G16U  0.168
40. G13A G39C  0.168
41. G13C G42C  0.166
42. G13C C25U  0.163
43. G13A G36A  0.162
44. G13A G43A  0.14
45. G13A G36U  0.139
46. G13C G45C  0.138
47. G13C A34U  0.137
48. G13A G24U  0.13
49. G13A G24C  0.129
50. G13C G36A  0.126
51. G13C C19G  0.125
52. G13C G36C  0.122
53. G13A G17A  0.121
54. G13C G39C  0.117
55. G13C G42U  0.112
56. G13C A40U  0.109
57. G13C A32U  0.108
58. G13C G39U  0.108
59. G13A C21G  0.105
60. G13C G43C  0.105
61. G13C C27G  0.104
62. G13C G41C  0.104
63. G13C C25G  0.101
64. G13C C26G  0.101
65. G13A G24A  0.0967
66. G13C A40G  0.0963
67. G13A C26A  0.095
68. G13C C15G  0.0922
69. G13C G41A  0.0914
70. G13A C26G  0.0899
71. G13A C27A  0.0875
72. G13C G41U  0.0855
73. G13C G43A  0.0854
74. G13C C21G  0.0833
75. G13A U18A  0.0831
76. G13C G17A  0.0829
77. G13A C21U  0.0803
78. G13C A34C  0.0766
79. G13C C19U  0.0706
80. G13C C15A  0.0696
81. G13C G24U  0.0687
82. G13C C21A  0.0599
83. G13C C21U  0.0571
84. G13C A23U  0.0457

From the RNAGym collection of RNA variant scans (doi:10.7554/elife.80360)
